Reference: a protein production outcome set (Wang et al. 2014)

Assay: label from the status in PepcDB records
In the case of “MKYAITGATGHLGQQIVAAMRPLVATTELYLGVHTLSKAQVYQQQGLHIAAIDYQQPEQLRAFFQDSDVLIYIPSKSHDSYSRVQEFENVLAAVQQANVHHFLVMGFIADQVNNPFALSAFYGYVPRRLAGSDINYTIVRNALYADPLVPYLPELIERHNVVYPMADQALSFISQADSAAAFAKVATTPDLLQRGRIYTLTQSRAYTMPELATVLSQVSGQLIGYRPVSLQAFSNMYNQNGEGPMLASMYAGGARGLLATVSDDYQLIMDRPAQSLLDYLQTNYQKS”, the protein production is reported as “failed”. In the case of “MKYSLGIDLGTTFSVVSIIDENGAPKVLKNKEGNTLTPSVIYFSGEEIIVGDDAKEMQAMGDNNIACFFKRNMGDENFVLEFQNKYYNAEDLSVIVLKKLKKDAEDFLKAEVKDAVITVPAYFNNIQRQSTINAGKRAEFNVLSILNEPTAAAMAYGMKASGENKNILVYDLGGGTFDVTLVHIGEELIKVLSTDGDHELGGKDWDDRIAMYIGEKFFEKFGVNPMDDIEYYNDILVKCENVKKHLSKRESTDISIYYCDLSEKFTITKEIFLGLTGDLLQRTKSLSDDVIKSAGLTWEDIDGVLPVGGSTRMPMVLDFIKEVSKKEPIVGINVDEAVSIGAAIKASMENATNTPTLRREEKALFTLGGYKKTEDVMSHSLGMIALNSTGERYINSIIIEKNKKIPCTEKRPYEIRTGRNRNNVLEVYMLQGESEEISDCTILGKYVFYDIEYVGRKPSIIDIEYSYNKNGVVDVFATQRETAKKLPLKIEKLSEDFIFEEELNEKEEAVHKNIVIAIDLSGSMRGKPLEEAIEASKTFVDSIDEGSFSLALIGFADKVKTLINLTEDREEIFRAIDGLKKADVGTSTMSEPFSEAYNILKDAYGDCFVVVLTDGQWYGKKDIMAEVNKCKEYEIEIAAIGFGNAKKDFLDKIATCEENSIFTEVSNLKQSFSRIAKVISRSDGSIKIFQKSNSIKLR”, the protein production is reported as “failed”. With “MKYTVYLFDFDYTLADSSRGIVTCFRSVLERHGYTGITDDMIKRTIGKTLEESFSILTGITDADQLESFRQEYSKEADIYMNANTILFPDTLPTLTHLKKQGIRIGIISTKYRFRILSFLRNHMPDDWFDIIIGGEDVTHHKPDPEGLLLAIDRLKACPEEVLYIGDSTVDAGTAAAAGVSFTGVTSGMTTAQEFQAYPYDRIISTLGQLISVPEDKS” the protein production was “not failed”. In the case of “MLAAGMSRRMGFNKLLAPLCGKRVLWHVLELVARFEGVLEGAVVVTSGEVADVLRRERPPGRRGLFRVVVNREQWRGLSHSIRLGVEASPGARAYLFFNGDRPFVSKHTVARVLALYMARRPLIAAPMAGGAIAPPVVVDSRLRGELLRLSGDTGVRSLFGKYRDSLAVVEVDDPGLHLDVDTPEDLERASKMCSQLGGGPREKPLEHHHHHH”, the protein production is reported as “failed”. With “MLAERGANITGLDISGPMLQQGREKAQATGVDDRVEFMRGDAARLPFPDDHFDTVFAMRFFHLADTPAAFLAEMRRVSKEQVFFDTFNRFSTRSIYNWALPMGSRLYSRWEIDRLLDGAGLELTDANHDWLLPYGFYRKIPNELAASFRSLDTALGGTPLGEKLASVSYWNTHVLEHHHHHH” the protein production was “failed”. With “MLAGADKVFLYAKPEQIEAFVAAAQSAGVRQVVLLSSVSVVMATSEQNPIARMHRTVELAIERSGLDWTFIRPGMFATNARWWWGESIRGEGVVRLPYPEAQNAPVHEKDMAALAVTALTEPGHSHQAYTVHGSESLTLRRQVEHIGEALGRPIRVETVSVEQAREEFAEKAPSNVAEALLRMWAAADGVPAPVSVIVDRITGRPAHTFAQWAADHADDFR” the protein production was “failed”. In the case of “MLAIFQKAFAHPPEELNSPASHFSGKTPKLPGETLSDFLSHHQNNAFSMNFGDSAVLAYARQETSLRQRLFCGLDGIYCMFLGRLNNLCTLNRQYGLSGKNSNEAMFVIEAYRTLRDRGPYPADQVLRGLEGSFAFVVYDTQTSSVFSALSSDGGESLYWGISGDGSVVMSDDIQIIKQGCAKSFAPFPNGCMFHSETGLKSFDHPTNMMKAMPRIDSEGVLCGASFKVDACSKINSIPRRGSEANWALANSR”, the protein production is reported as “failed”. In the case of “MLAILGFVMMIVFMYLIMSNRLSALIALIVVPIVFALISGFGKDLGEMMIQGVTDLAPTGIMLLFAILYFGIMIDSGLFDPLIAKILSFVKGDPFKIAVGTAVLTMTISLDGDGTTTYMITIRAMLPLYKRLGMNRLVLAGIAMLGSGVMNIIPWGEPTARVLASLKLDTSEVFTPLIPAMIAGILWVIAVAYILGKKERKRLGVISIDHAPSSDPEAAPLKRPALQWFNLLLTVALMAALITSLLPLPVLFMTAFAVALMVNYPNVKEQQKRISAHAGNALNVVSMVFAAGIFTGILSGTKMVDAMAHSTRSLIPDAMGPHLPLITAIVSMPFTFFMSNDAFYFGVLPIIAEAASAYGIDAAEIGRASLLGQPVHLLSPLVPSTYLLVGMAGVSFGDHQKFTIKWAVGTTIVMTIAALLIGIISF”, the protein production is reported as “failed”.
